One may read the Kd as the concentration at which binding is half-saturated. What is called stoichiometry N is the number of molecules, sites or subunits per partner or assembly.

For data set [1], the target named is T1, Mce3R (Mycobacterium tuberculosis H37Rv, UniProt P95251 1-406).
T1 sequence: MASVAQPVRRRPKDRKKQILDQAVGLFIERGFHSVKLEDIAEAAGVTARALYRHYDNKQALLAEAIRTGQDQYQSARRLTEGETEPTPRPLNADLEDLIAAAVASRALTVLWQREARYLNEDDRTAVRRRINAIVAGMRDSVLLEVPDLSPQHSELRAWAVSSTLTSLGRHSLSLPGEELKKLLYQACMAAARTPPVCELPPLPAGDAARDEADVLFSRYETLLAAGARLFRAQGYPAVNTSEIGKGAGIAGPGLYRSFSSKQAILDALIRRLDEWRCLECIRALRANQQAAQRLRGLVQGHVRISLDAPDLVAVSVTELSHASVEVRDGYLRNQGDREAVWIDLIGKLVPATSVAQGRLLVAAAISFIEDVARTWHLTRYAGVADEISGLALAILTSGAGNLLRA
Put plainly: EMSA. The note with it: protein: recombinant; tags: MBP-His6 N-terminal, removed with TEV; chain copies: 2; label: 5'-Cy3; blunt. Background: A gel shift assay detects complexes by their altered migration in electrophoresis.

The target in data set [2] is T1, Mce3R. Put plainly: EMSA; up to 128 nM Mce3R, 1 ug poly(dI-dC). The note with it: protein: recombinant; tags: MBP-His6 N-terminal, removed with TEV; chain copies: 2; label: 5'-Cy3 (forward strand); blunt.
Data set [3] deals with T1, Mce3R. Put plainly: EMSA; 10 nM DNA, 0-128 nM protein. The note with it: protein: recombinant; tags: MBP-His6 N-terminal, removed with TEV; chain copies: 2; label: 5'-Cy3 (forward strand); blunt.
The data set “SEC” concerns the molecule itself. Put plainly: SEC. For orientation: In gel filtration, larger molecules generally elute earlier.

B1: Probe C (dsDNA)
DNA 1: TAGCCAATATATGCCAGTTTGCATTGCTATTTACCGATCAGTTGTCCAAGCAATCGCGTATTGGCTATGGACATCAGCGGTTCTGCCGC
DNA 2: GCGGCAGAACCGCTGATGTCCATAGCCAATACGCGATTGCTTGGACAACTGATCGGTAAATAGCAATGCAAACTGGCATATATTGGCTA
B1: the binding result in the data set with Mce3R [1] is reported as “binds”.

B2: Probe A' (dsDNA)
DNA 1: CCAGTGCGACCTAACCAAGGACCTACAGATTCTGTCCGTGAGAGAATCGTGTTGGCCTCAGAAGACGGTCGCAAGTTCTCTTTATGACCTGCTAAACTTGAGCCTATATTAGTTATCGCACCT
DNA 2: AGGTGCGATAACTAATATAGGCTCAAGTTTAGCAGGTCATAAAGAGAACTTGCGACCGTCTTCTGAGGCCAACACGATTCTCTCACGGACAGAATCTGTAGGTCCTTGGTTAGGTCGCACTGG
As to B2, in the data set with Mce3R [2], the binding result was “no binding”.

B3: Probe A* (dsDNA)
DNA 1: CTACAAGTGCTGGAGGTCAAATCCCGCATCAACATAGCCAATATATGCCAGTTTGCATTGCTATTTACCGATCAGTTGTCCAAGCAATCGCGTATTGGCTATGGACATCAGCGGTTCTGCCGC
DNA 2: GCGGCAGAACCGCTGATGTCCATAGCCAATACGCGATTGCTTGGACAACTGATCGGTAAATAGCAATGCAAACTGGCATATATTGGCTATGTTGATGCGGGATTTGACCTCCAGCACTTGTAG
For the molecule B3, in the data set with Mce3R [3], the Kd came to 59 ± 10 nM.

B4: Mce3R (Rv1963c), full-length TetR-like repressor of Mycobacterium tuberculosis (natural protein)
chain: MASVAQPVRRRPKDRKKQILDQAVGLFIERGFHSVKLEDIAEAAGVTARALYRHYDNKQALLAEAIRTGQDQYQSARRLTEGETEPTPRPLNADLEDLIAAAVASRALTVLWQREARYLNEDDRTAVRRRINAIVAGMRDSVLLEVPDLSPQHSELRAWAVSSTLTSLGRHSLSLPGEELKKLLYQACMAAARTPPVCELPPLPAGDAARDEADVLFSRYETLLAAGARLFRAQGYPAVNTSEIGKGAGIAGPGLYRSFSSKQAILDALIRRLDEWRCLECIRALRANQQAAQRLRGLVQGHVRISLDAPDLVAVSVTELSHASVEVRDGYLRNQGDREAVWIDLIGKLVPATSVAQGRLLVAAAISFIEDVARTWHLTRYAGVADEISGLALAILTSGAGNLLRA
notes: Mce3R (Rv1963c), Mycobacterium tuberculosis H37Rv, full length; calculated MW 44.3 kDa; also called M1M2 TFR; wild-type Mce3R; not shown: MBP, N-terminal, cleaved; His6, N-terminal, cleaved
For B4, the “stoichiometry N” value in the data set “SEC” is 2.

B5: Probe A (dsDNA)
DNA 1: GCCCCGCGCTATAGGATACTAGCAAGATACATCATAGCCAATATATGCCAGTTTGCATTGCTATTTACCGATCAGTTGTCCAAGCAATCGCGTATTGGCTATGGACATCAGCGGTTCTGCCGC
DNA 2: GCGGCAGAACCGCTGATGTCCATAGCCAATACGCGATTGCTTGGACAACTGATCGGTAAATAGCAATGCAAACTGGCATATATTGGCTATGATGTATCTTGCTAGTATCCTATAGCGCGGGGC
With B5, the Kd with Mce3R [3] came out at 2.4 ± 0.7 nM.
